Laboratory results from the RNAGym collection of RNA variant scans (doi:10.7554/elife.80360).

B1: Hairpin Ribozyme (parent)
chain: GUCCUCUUUCACGUGCGCGUGAAAGAGAGAAGUGAACCAGAGAAACACACGUUGUGGUAUAUUACCUGGUA

Variants of: B1
Assay: self-cleavage, relative activity (ratio to wild type); higher = more cleavage; co-transcriptional

Going from G15C A64U to G15C A71U, the self-cleavage rises from 0.186 to 0.793.

Going from G15C C16A to G15C C18A, the self-cleavage rises from 1.1 to 1.18.

Going from G15C C38U to G15C C46A, the self-cleavage falls from 0.6 to 0.136.

First: G15C C48G
Second: G15C C50A
The self-cleavage of the first is lower: 0.109 for the first, 0.169 for the second.

Compared with G15C C50G, G15C C50U is higher in self-cleavage: 0.184 for the first, 0.47 for the second.

Going from G15C C65A to G15C C66A, the self-cleavage falls from 0.928 to 0.144.

First: G15C G19C
Second: G15C G19U
The self-cleavage of the first is lower: 0.786 for the first, 0.953 for the second.

First: G15C G21A
Second: G15C G25C
The self-cleavage of the first is higher: 0.76 for the first, 0.687 for the second.

Going from G15C G27A to G15C G40C, the self-cleavage falls from 0.555 to 0.125.

First: G15C G40U
Second: G15C G42C
The self-cleavage of the first is lower: 0.23 for the first, 0.369 for the second.

First: G15C G54U
Second: G15C G56A
The self-cleavage of the first is higher: 0.647 for the first, 0.129 for the second.

Going from G15C G57A to G15C G68A, the self-cleavage rises from 0.24 to 0.324.

Going from G15C G69A to G15C G69C, the self-cleavage falls from 0.414 to 0.275.

First: G15C U33C
Second: G15C U33G
The self-cleavage of the first is higher: 0.233 for the first, 0.0645 for the second.

Compared with G15C U52A, G15C U52C is lower in self-cleavage: 1.19 for the first, 1.05 for the second.

Going from G15C U58A to G15C U58C, the self-cleavage rises from 0.751 to 0.974.

Going from G15C U60G to G15C U62A, the self-cleavage falls from 0.466 to 0.14.

First: G15C U63G
Second: G15C U67G
The self-cleavage of the first is lower: 0.127 for the first, 0.294 for the second.

First: G15C U70A
Second: G15U
The self-cleavage of the first is lower: 0.848 for the first, 1.08 for the second.

Compared with G15U A22C, G15U A22G is higher in self-cleavage: 0.681 for the first, 1.12 for the second.

Going from G15U A23C to G15U A23G, the self-cleavage falls from 1.14 to 0.87.

Going from G15U A23U to G15U A30C, the self-cleavage falls from 0.918 to 0.173.

Going from G15U A30G to G15U A31G, the self-cleavage rises from 0.122 to 0.795.

Going from G15U A31U to G15U A35U, the self-cleavage rises from 0.232 to 0.842.

Going from G15U A36C to G15U A36U, the self-cleavage falls from 0.839 to 0.606.

First: G15U A39C
Second: G15U A41C
The self-cleavage of the first is lower: 0.7 for the first, 1.11 for the second.

Compared with G15U A41U, G15U A44G is lower in self-cleavage: 1.41 for the first, 0.0895 for the second.

First: G15U A44U
Second: G15U A45C
The self-cleavage of the first is higher: 0.174 for the first, 0.169 for the second.

Going from G15U A45G to G15U A47C, the self-cleavage rises from 0.184 to 0.324.

Going from G15U A47U to G15U A49G, the self-cleavage rises from 0.215 to 0.539.

Compared with G15U A59U, G15U A61G is higher in self-cleavage: 0.0728 for the first, 0.164 for the second.

Going from G15U A61U to G15U A64U, the self-cleavage falls from 0.182 to 0.139.

Compared with G15U C16G, G15U C38G is lower in self-cleavage: 1.09 for the first, 0.149 for the second.

Going from G15U C46A to G15U C50U, the self-cleavage rises from 0.167 to 0.49.

Compared with G15U C65U, G15U C66U is higher in self-cleavage: 0.33 for the first, 0.574 for the second.

Compared with G15U G17A, G15U G19C is lower in self-cleavage: 1.05 for the first, 1 for the second.

First: G15U G21A
Second: G15U G21C
The self-cleavage of the first is higher: 0.872 for the first, 0.829 for the second.

First: G15U G21U
Second: G15U G25U
The self-cleavage of the first is higher: 0.868 for the first, 0.778 for the second.

Going from G15U G27U to G15U G29U, the self-cleavage falls from 0.35 to 0.124.

G15U G34A and G15U G34C are the same in self-cleavage: 1.33 for the first, 1.33 for the second.

First: G15U G40C
Second: G15U G42U
The self-cleavage of the first is lower: 0.0954 for the first, 0.369 for the second.

Going from G15U G54A to G15U G54U, the self-cleavage falls from 0.695 to 0.632.

Compared with G15U G56A, G15U G57C is lower in self-cleavage: 0.187 for the first, 0.128 for the second.

Compared with G15U U53G, G15U U58A is higher in self-cleavage: 0.645 for the first, 0.831 for the second.

Going from G15U U60A to G15U U60G, the self-cleavage falls from 0.932 to 0.57.

Going from G15U U63C to G15U U63G, the self-cleavage falls from 0.14 to 0.108.

Going from G15U U67G to G15U U70G, the self-cleavage rises from 0.364 to 0.873.

Compared with C16A, C16A A22U is lower in self-cleavage: 0.903 for the first, 0.816 for the second.

Going from C16A A23C to C16A A24C, the self-cleavage falls from 0.983 to 0.71.

Going from C16A A24G to C16A A26C, the self-cleavage falls from 0.763 to 0.488.

Compared with C16A A31G, C16A A35G is higher in self-cleavage: 0.536 for the first, 1.06 for the second.

Compared with C16A A36C, C16A A39G is lower in self-cleavage: 0.399 for the first, 0.243 for the second.

Going from C16A A39U to C16A A43C, the self-cleavage falls from 0.364 to 0.116.

Going from C16A A43G to C16A A44U, the self-cleavage rises from 0.118 to 0.133.

Compared with C16A A49C, C16A A59U is higher in self-cleavage: 0.0771 for the first, 0.212 for the second.

First: C16A A64G
Second: C16A A71C
The self-cleavage of the first is lower: 0.455 for the first, 1.1 for the second.

Compared with C16A A71G, C16A C37U is lower in self-cleavage: 1.04 for the first, 0.519 for the second.

Going from C16A C38G to C16A C46A, the self-cleavage rises from 0.114 to 0.197.

Compared with C16A C46G, C16A C48A is lower in self-cleavage: 0.143 for the first, 0.123 for the second.

First: C16A C50A
Second: C16A C50U
The self-cleavage of the first is higher: 0.361 for the first, 0.309 for the second.

Compared with C16A C65U, C16A C66A is lower in self-cleavage: 0.242 for the first, 0.108 for the second.

Going from C16A G17A to C16A G17C, the self-cleavage falls from 1.02 to 0.85.

Going from C16A G19U to C16A G21A, the self-cleavage falls from 0.862 to 0.67.

Compared with C16A G21C, C16A G25C is lower in self-cleavage: 0.605 for the first, 0.499 for the second.

First: C16A G40A
Second: C16A G40C
The self-cleavage of the first is higher: 0.28 for the first, 0.157 for the second.

Going from C16A G42C to C16A G51U, the self-cleavage rises from 0.304 to 0.861.

Going from C16A G54C to C16A G54U, the self-cleavage rises from 0.432 to 0.595.

Compared with C16A G56C, C16A G57U is higher in self-cleavage: 0.212 for the first, 0.242 for the second.

Compared with C16A G68A, C16A G69C is lower in self-cleavage: 0.305 for the first, 0.205 for the second.

First: C16A U20C
Second: C16A U33A
The self-cleavage of the first is higher: 0.956 for the first, 0.17 for the second.

Compared with C16A U52A, C16A U52C is lower in self-cleavage: 0.982 for the first, 0.841 for the second.

Compared with C16A U53A, C16A U53G is lower in self-cleavage: 0.936 for the first, 0.877 for the second.

Compared with C16A U55C, C16A U58C is higher in self-cleavage: 0.288 for the first, 0.937 for the second.

First: C16A U60A
Second: C16A U60C
The self-cleavage of the first is lower: 0.767 for the first, 0.836 for the second.

First: C16A U60G
Second: C16A U62A
The self-cleavage of the first is higher: 0.451 for the first, 0.199 for the second.

First: C16A U63A
Second: C16A U63G
The self-cleavage of the first is lower: 0.132 for the first, 0.253 for the second.

Going from C16G to C16G A22G, the self-cleavage rises from 0.774 to 0.828.

Going from C16G A23G to C16G A24G, the self-cleavage falls from 0.751 to 0.568.

First: C16G A26U
Second: C16G A28G
The self-cleavage of the first is lower: 0.293 for the first, 0.959 for the second.

Compared with C16G A28U, C16G A35G is higher in self-cleavage: 0.483 for the first, 0.797 for the second.

Going from C16G A39C to C16G A41C, the self-cleavage rises from 0.374 to 1.12.

Compared with C16G A43U, C16G A44C is lower in self-cleavage: 0.157 for the first, 0.0851 for the second.

Compared with C16G A44U, C16G A45G is lower in self-cleavage: 0.16 for the first, 0.126 for the second.

C16G A47U showed a self-cleavage of 0.06.
